The values that follow come from PMC10889842.

The target of the assay is StBIN2 (Brassinolide insensitive 2 of potato), fused to nLUC (Solanum tuberosum (potato)). As to the kind of experiment: split reporter (BiFC, NanoBiT); luciferase complementation in infiltrated tobacco leaves; LUC enzyme activity detected with a dual luciferase reporter assay kit (Vazyme); three biological repeats.

Take “StCCJ9 (a homolog of peroxidase AtPER12), fused to cLUC (enzyme)”: the LUC enzyme activity, fold over the negative control is 5 fold.

Take “StSnRK2.2, fused to cLUC (natural protein)”: the LUC enzyme activity, fold over the negative control is more than 5 fold.
